Test results published in the nanobody polyreactivity screen of Harvey et al. (2022).

Assay: yeast display, Sf9 membrane polyspecificity reagent, FACS + sequencing; frameworks hold sequencing errors
Summary of the method: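 Sorting gates, low and high (top ~1%), were placed on anti-HA fluorescence to track expression and on streptavidin fluorescence to track reagent binding. A clone's polyreactivity label is taken from the gate it came out of. The reagent was 10% biotinylated, detergent-solubilized Sf9 membrane, applied for 1 hour at 4 °C to galactose-induced yeast display cells.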

Sequence | polyreactivity (PSR sort gate)
QVQLEESVGGLVQAGCSLRLSCAASGGIFWVYAMGWYRQAPGKERELVAAISNSDTSTSYADSVKGRFTISRDNAKNTVYLQMNSLKPEDTAVYYCNADSPSLSGDYWGQGTQVTVSS | low polyreactivity
QVQLVESGGGLVQAGGSLRLSCAASGRIFYYYAMGWYRQAPGKERELVAAISWSGVNTYYADSVKGRFTISRDNAKNTVYLQMNSLKPEDTAVYYCAAGFAYKYSKGFWSDYWGQGTQVTVSS | high polyreactivity
QVQLVESGGGLVQAGRSHRLSCAASGSTYANTMGWYIQAPGKERELDAAITYTGGSTYYADSVKGRFTISRDNAKNTVYLQMNSLKPEDTAVYYCAADAQAPPGGFKEYDYWGQGTQVTVSS | low polyreactivity
QVQLVESGGGLVQAGGSLRLSSAASGRTFDFYAMGWYRQAPGKERELVAAITGSDTSTYYADSVKGRFTISRDNAKNTVYLQMNSLKPEDTAVYYCAADGQWAYTVDPYVIYYRLDYWGQGTQVTVSS | low polyreactivity
QVQIVESGGGLVQAGGSLRLSCAASGFIFGANAMGWYRQAPGKEREFVAAISSSGGRYELRRSVKGRFTISRDKAKNTVYLQMNSLKPEDTAVYYCATPYPTGRPRHYYWGQGTQVTVSS | high polyreactivity
QVQLVESGGGLVQAGGSLRLSCAASGIIFYRYAMGCYRQAPGKEREFVAAISWSGGSTTYADSVKGRFTISRDNAKNTVYLQMNSLKPEDTAVYYCNADRKYWSLWGPAYDYWGQGTQVTVSS | high polyreactivity
QVQLVESGGGLVQAGGSLRLSCAASGFIFPGYAMGWYRQAPGKEREFVAVISRSGVRTYYADSVKGRFTISRDNAKNTVYLQMNSLKPEDTAVYYCAARYYSTDLEYWGQGTQVTVSS | low polyreactivity
QDQLVESGGGLVQAGGSLRLSCAASGITFSGNAKGCYRQAPGKETELVAAISRNGGRTYYADSVKGRFTISRDNAKNTVYLQMNSLKQEDTAVYYCAKDAYGYFRVSAWYYTYDYWGQGTQVTVSS | high polyreactivity
QVQLVESGGGLVQAGGSLRLSCAASGFTFRAYAMGWYRQAPGKERELVAAITYSGDRTYYADSVKGRFTISRDNAKNTVYLQMNSLKPEDTAVYYCAAYGAKVNRPGYYYWGQGTQVTVSS | high polyreactivity
QVQLVESGGGLVQAGGSLRLSCAASGRTFYGYAMGWYRQAPGKERELVASISYSGGNTYYADSVKGRFTISRDIAKNTVYLQMNSLKPEDTAVYYCAAEVVFFGWHYDYWGQGTQVTVSS | high polyreactivity
QVQLVESGGGLVQAGGSLRLSCAASGRIFGNYAMGWYRQAPGKERELVAAISNGSGRTSYADSVKGRFTISRDNAKNTVYLQMNSLKPEDTAVYYCAVLRPKSRKHTVGFCYWGQGTQVTVSS | high polyreactivity
QVQLVESGGGLVQAGGSLRLSCDASGSIFNRNVMGWYRQAHGKERELVAVITGSGDSTFYADSVKGRFTISRDNAKNTVYLQRNSLIPDDTAVYYCNARLVSGGYYYWGLGTQVTVSS | low polyreactivity
QVQLVESGGGLVQAGGSLRLSCAASGIIFSWYAMGWYRQAPGKERELVASITIGGNTNYADSVKGRFTISRDNAKNTVYLQMNSLKPEDTAVYYCAAQTFWYGYGGGDYWGEGTQVTVSS | low polyreactivity
QVPLVESGGRLVQAGGSLRLSCAASGSTIGPYTMGWYRQAPGKERELVATISSGGSTYSADSVKGRFTISRDNEKNTVYLQMISLKPEDTAVYYCAARYRSIYDYWGQGTQVTVSS | low polyreactivity
QVQLVESGGGLVQAGGSLRLSCAASGNTFDIYAMGWYRQAPGKERELVAAISRRGGSTYYADSVKGRFTISRDNAKNTVYLQMNSLKPEDTAVYYCNTYSGPYSISDYWGQGTQVTVSS | high polyreactivity
QVQLVESGGGLVQAGGSLRLSCAASGSIFYVNTMGWYRQAPGKERELVAVIDYGGDSTYYADSVKGRFTISRDNAKNTVFLQMNSLKPEDTAVYYCAADAYESGNWEANGYWGQGTEVTVSS | low polyreactivity
QVQLVESGGGLVQAGGSLRLSCAASGYTSAKNGMGWYRQAPGKEREFVAGISRSGSSTYYADSVKGRFTISRDNAKNTVYLQMNSLKPEDTAVYFCAADWSVFTYFYGYDYWGQGTQVTVSS | low polyreactivity
QVQLVESGGGLVQAGGSLRLSCAASGYTFKRYAMGWYRQAPGKERELVAAISQSGTNTYYADSVKGRFTISRDNAKNTVYLQMNSLKPEDTAVYYCAAKPPRRYQLMDYWGQGTQVTVSS | high polyreactivity
QVQLVESGVCIVQAGGSLRLRCASSGSSLLNNAMGWYRQAPGKERELVAAITWSGGDTYYADSVKGRFTISRDNAKNTVYLQMNCLLQEDTAVYDCAADRYQWLTAYTDDLDHDYWGQGTQVTVSS | high polyreactivity
QVQLVESGGGIVQAGGSLRLNSAASGITINGNAMGWYRQEPGKERQLVAAISRSSSRTYYADSVKGRFTISRDNAKNTVYLQKNSLKQEDTAVYYCAALSLNVDAPSYGYWGQGTQVTVSS | high polyreactivity
QVQLVESGGGLVQAGGSLRLSCAASGLIFSRNAMGWYRQAPGKERELVAAISGGGGSTYYADSVKGRFTISRDNAKNTVYLQMNSLKPEATAVYYCAAKGYWWLTPWIATYDYWGQGTQVTVSS | high polyreactivity
QVQLVESGGGLVQAGGSLRLSCAASGRTFRIYAVGWYIQAPGKERELVARITWSGGRTYYADSVKGRFTISRDNAKNTVYLQMNSLKPEDTAVYYCNAGGSWEFDYWGQGTQVTVSS | low polyreactivity
